Where two headings read alike, the source gives them in different places.
How the values were obtained:
[1] = biological target: alpha-actin from chicken skeletal muscle (chicken) (UniProt P68139); assay: actin uncapping assay
[2] = biological target: alpha-actin from chicken skeletal muscle (chicken) (UniProt P68139); assay: kinetic simulation
[3] = biological target: beta-actin from bovine erythrocytes (bovine) (UniProt P60712); assay: kinetic simulation
[4] = biological target: beta-actin from bovine erythrocytes (bovine) (UniProt P60712); assay: shift of the critical concentration for actin polymerization
[5] = biological target: beta-actin from bovine erythrocytes (bovine) (UniProt P60712)

Row | half-life of a capped barbed end with PIP2 [1] [s] | koff [2] [s⁻¹] | koff [3] [s⁻¹] | kon [3] [M⁻¹ s⁻¹] | Kd [4] [nM] | koff [5] [s⁻¹] | Substance
1 | 46 | 0 | – | – | – | – | capping protein of chicken skeletal (pectoral) muscle containing the beta1 subunit (CP-beta1) (from UniProt P13127;P28497;P14315-1) (complex)
2 | – | – | 0.00095 | 3.9e+06 | 0.08 | 0.00031 | capping protein of chicken kidney and brain containing the beta2 subunit (CP-beta2) (from UniProt P13127;P28497;P14315-2) (complex)

— paper PMC2121029
